The values below come from publication PMC9882600, “Asymmetric gating of a human hetero-pentameric glycine receptor” (Research Square, 2023).

The target of series [1] is human glycine receptor β subunit, cryo-EM construct βem (human) (UniProt P48167). As to the kind of experiment: cryo-EM structure; α1emβem GlyR co-expressed and purified as a complex, 6 mg/ml in 20 mM Tris pH 8.0, 200 mM NaCl, 0.06% digitonin; vitrified without ligand (apo) or after 1 h with 2 mM glycine on ice (open, expanded-open, desensitized classes); ~3 mM fluorinated fos-choline 8 added before freezing.

Series [2] concerns the molecule itself. The series is described as above.

Chain of human glycine receptor β subunit, cryo-EM construct βem (human) (P48167 23-497): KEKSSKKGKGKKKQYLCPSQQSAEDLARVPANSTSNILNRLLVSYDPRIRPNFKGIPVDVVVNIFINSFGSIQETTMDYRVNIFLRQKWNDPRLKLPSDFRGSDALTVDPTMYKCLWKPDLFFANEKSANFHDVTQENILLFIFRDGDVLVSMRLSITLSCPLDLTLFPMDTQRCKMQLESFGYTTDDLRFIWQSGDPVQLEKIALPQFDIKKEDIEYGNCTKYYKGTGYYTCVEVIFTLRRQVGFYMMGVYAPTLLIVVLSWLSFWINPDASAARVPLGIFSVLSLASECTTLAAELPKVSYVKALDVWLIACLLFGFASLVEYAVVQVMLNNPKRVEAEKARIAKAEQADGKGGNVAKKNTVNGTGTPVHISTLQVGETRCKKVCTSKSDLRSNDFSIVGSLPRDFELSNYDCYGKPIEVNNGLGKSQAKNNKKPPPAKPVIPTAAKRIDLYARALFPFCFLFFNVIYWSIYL

B1: human glycine receptor α1 subunit, cryo-EM construct α1em (receptor)
chain: ARSAPKPMSPSDFLDKLMGRTSGYDARIRPNFKGPPVNVSCNIFINSFGSIAETTMDYRVNIFLRQQWNDPRLAYNEYPDDSLDLDPSMLDSIWKPDLFFANEKGAHFHEITTDNKLLRISRNGNVLYSIRITLTLACPMDLKNFPMDVQTCIMQLESFGYTMNDLIFEWQEQGAVQVADGLTLPQFILKEEKDLRYCTKHYNTGKFTCIEARFHLERQMGYYLIQMYIPSLLIVILSWISFWINMDAAPARVGLGITTVLTMTTQSSGSRASLPKVSYVKAIDIWMAVCLLFVFSALLEYAAVNFVSRQHKELLGSSGEEMRKLFIQRAKKIDKISRIGFPMAFLIFNMFYWIIYKIVRREDVHNQ
notes: glycine receptor α1 subunit, human, NCBI NP_001139512.1; residues before the M3/M4 loop stretch R316-P381 that was replaced by GSSG; the lists of unbuilt residues begin at A1 and give 367 aa in total; linker that replaces the M3/M4 loop residues R316-P381; residues after the replaced M3/M4 loop stretch, to Q429 (last residue named in the lists of unbuilt residues); Four copies stand in the …
As a reminder, the stoichiometry N is the number of molecules, sites or subunits per partner or assembly. In the case of B1, in series [1], the stoichiometry N is 4 α1:β. In addition, in series [2], the binding result is “binds”.
